Test results published in article PMC9097884 (Science Immunology, 2022).

B1: REGN10987 (recombinant human IgG1/kappa) (antibody, V domains shown)
VH: QVQLVESGGGVVQPGRSLRLSCAASGFTFSNYAMYWVRQAPGKGLEWVAVISYDGSNKYYADSVKGRFTISRDNSKNTLYLQMNSLRTEDTAVYYCASGSDYGDYLLVYWGQGTLVTVSS
VL: QSALTQPASVSGSPGQSITISCTGTSSDVGGYNYVSWYQQHPGKAPKLMIYDVSKRPSGVSNRFSGSKSGNTASLTISGLQSEDEADYYCNSLTSISTWVFGGGTKLTVL
B2: REGN10933 (recombinant human IgG1/kappa) (antibody, V domains shown)
VH: QVQLVESGGGLVKPGGSLRLSCAASGFTFSDYYMSWIRQAPGKGLEWVSYITYSGSTIYYADSVKGRFTISRDNAKSSLYLQMNSLRAEDTAVYYCARDRGTTMVPFDYWGQGTLVTVSS
VL: DIQMTQSPSSLSASVGDRVTITCQASQDITNYLNWYQQKPGKAPKLLIYAASNLETGVPSRFSGSGSGTDFTFTISGLQPEDIATYYCQQYDNLPLTFGGGTKVEIK
notes: source: HEK-293T, transient transfection, purified (Protein A Sepharose)
B3: 87G7 human monoclonal antibody (recombinant human IgG1/kappa) (antibody, V domains shown)
VH: EVQLLESGGGLVQPGGSLRLSCVASGFTFSSYVMSWVRQAPGKGLEWVAAISGSGGNTYYADSVKGRFTISRDNSKNTLYLQMNSLRAEDTAVYYCAKEGTYYYGSGSFWGQGTLVTVSS
VL: EIVLTQSPATLSLSPGERATLSCRASQSFHNYLAWYQQKPGRAPRLLIFDASNRATGIPARFSGSGSGTDFTLTISSLEPEDFAVYYCQQRFNWPLTFGGGTKVEIK
notes: also called 87G7 IgG; 87G7 mAb

What was measured:
[1] = target: SARS-CoV-2 S1 (residues 1-682, Wuhan-Hu-1) (SARS-CoV-2 (Wuhan-Hu-1 strain), UniProt P0DTC2); experiment: ELISA; conditions: both partners purified
[2] = target: T1, SARS-CoV-2 S receptor-binding domain (RBD, residues 329-538, Wuhan-Hu-1) (SARS-CoV-2 (Wuhan-Hu-1 strain), UniProt P0DTC2); experiment: ELISA; conditions: both partners purified
T1 construct: also called SARS-CoV-2 S RBD domain; not shown: Strep-tag, C-terminal, kept

| Binder | binding result [1] | binding result [2] |
| --- | --- | --- |
| B1 | binds |  |
| B2 | binds | binds |
| B3 | binds | binds |
